{
  "source": "patent US20250042992A1",
  "about": "(University of California, published 2025)",
  "binders": {"B1": {"name": "humanized anti-DLK1 antibody 04-0561-F1 (IgG1) (antibody, V domains shown)", "VH": "QVQLQESGPGLVKPSETLSLTCTVSGFSLSIYSVHWVRQPPGKGLEWIGLIWGGGSTDYNPSLKSRVTISKDTSKNQVSLKLSSVTAADTAVYYCARKEGNYLWFAYWGQGTLVTVSS", "VL": "DIVMTQSPDSLAVSLGERVTMNCKSSQSLLQSSNQKNYLAWYQQKPGQPPKLLVYFASTRESGVPDRFSGSGSGTDFTLTISSVQAEDVAVYYCQQHYSIPLTFGQGTKLEIKR"}, "B2": {"name": "humanized anti-DLK1 antibody 04-0547-h2 (IgG1) (antibody, V domains shown)", "VH": "EVQLVESGGGLVQPGGSLRLSCAASGFSISDYYMAWVRQAPGKGLEWVANINYDGTNTYYADSVKGRFTISRDNSKNTLYLQMNSLRAEDTAVYYCVRSYYYYGMEYWGQGTTVTVSS", "VL": "DIQMTQSPSSLSASVGDRVTITCRASHDVSTAVAWYQQKPGKAPKLLIYSASYRYTGVPSRFSGSGSGTDFTLTISSLQPEDFATYYCQQHYRIPLTFGQGTKLEIK", "notes": "human kappa (P01834) and human IgG1 (P01857) constant regions"}},
  "key": {"[1]": {"target": "T1, DLK1 ECD-mFc long form (human DLK1-FL, isoform 1) (human, UniProt P80370 24-303)", "T1 construct": "also called long form of the human DLK1 protein (ELISA coat); not shown: mFc (monomeric immunoglobulin Fc domain)", "T1 sequence": "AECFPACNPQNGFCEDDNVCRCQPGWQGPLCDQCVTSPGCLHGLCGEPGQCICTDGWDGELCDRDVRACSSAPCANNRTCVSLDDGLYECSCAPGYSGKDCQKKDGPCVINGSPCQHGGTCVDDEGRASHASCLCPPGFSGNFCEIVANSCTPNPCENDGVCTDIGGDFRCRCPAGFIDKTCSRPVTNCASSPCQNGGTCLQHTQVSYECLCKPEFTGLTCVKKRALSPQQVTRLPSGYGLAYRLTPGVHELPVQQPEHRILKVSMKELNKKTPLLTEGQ", "experiment": "ELISA, plate coated with DLK1 ECD-mFc long form", "method": "Plates were incubated with DLK1 Abs serially diluted 2-fold starting from 400 ng/ml in 5% BSA/PBS at RT for 1.5 hrs. Mouse anti-human IgG Fc secondary antibody conjugated to HRP (Novus catalog number: NBP1-78623H) at 1:3000 dilution was applied to each well at 50 μl/well and further incubated at RT for 1 hr. The ELISA was developed first with Thermo Scientific Pierce 1-Step™ Ultra TMB-ELISA substrate solution and then with addition of sulfuric acid stop solution. The ELISA plate was read on a plate reader at 450 nm."}, "[2]": {"target": "T2, rat DLK1 fused to mGFP, overexpressed on HEK293T cells (rat, UniProt O70534 24-383)", "T2 construct": "whole, on cells; not shown: mGFP fluorescent protein fused to DLK1", "T2 sequence (looked up)": "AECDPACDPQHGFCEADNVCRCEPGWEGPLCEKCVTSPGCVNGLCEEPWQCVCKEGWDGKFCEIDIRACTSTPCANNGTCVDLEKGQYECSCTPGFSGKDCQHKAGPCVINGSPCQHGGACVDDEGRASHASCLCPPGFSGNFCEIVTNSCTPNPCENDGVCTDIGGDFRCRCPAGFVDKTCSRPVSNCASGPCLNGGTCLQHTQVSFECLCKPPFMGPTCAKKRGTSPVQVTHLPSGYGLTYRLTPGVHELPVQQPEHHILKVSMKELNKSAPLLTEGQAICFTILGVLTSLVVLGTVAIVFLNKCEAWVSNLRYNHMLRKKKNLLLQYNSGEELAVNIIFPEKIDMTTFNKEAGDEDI", "experiment": "flow cytometry, row HEK293T Rat DLK1mGFP mass pop"}, "[3]": {"target": "either the long or short form of the human DLK1 protein (DLK1 ECD-mFc long form or short form, ELISA coat)", "experiment": "ELISA, plates coated with DLK1 ECD-mFc long form or short form, anti-human IgG Fc-HRP detection"}, "[4]": {"target": "T3, recombinant fusion protein of human DLK1 extracellular domain (ECD) and monomeric immunoglobulin Fc domain … (human, UniProt P80370 24-303)", "T3 construct": "also called human DLK1 ECD-mFc fusion protein; not shown: monomeric immunoglobulin Fc domain (mFc)", "T3 sequence": "T1 sequence", "experiment": "affinity on recombinant DLK1 ECD-mFc; method not stated"}, "[5]": {"target": "T2, rat DLK1 fused to mGFP, overexpressed …", "experiment": "KinExA on cells, row HEK293T Rat DLK1mGFP mass pop"}, "[6]": {"target": "T2, rat DLK1 fused to mGFP, overexpressed …", "experiment": "KinExA on HEK293T DLK1mGFP Rat mass pop cells detached by Versene; Error% 3.17; 95% CI 1.82nM - 13.53nM; equilibrium curves 400pM, 50nM"}, "[7]": {"target": "T4, mouse DLK1 fused to mGFP, overexpressed on HEK293T cells (mouse, UniProt Q09163 24-385)", "T4 construct": "not shown: mGFP fluorescent protein fused to DLK1", "T4 sequence": "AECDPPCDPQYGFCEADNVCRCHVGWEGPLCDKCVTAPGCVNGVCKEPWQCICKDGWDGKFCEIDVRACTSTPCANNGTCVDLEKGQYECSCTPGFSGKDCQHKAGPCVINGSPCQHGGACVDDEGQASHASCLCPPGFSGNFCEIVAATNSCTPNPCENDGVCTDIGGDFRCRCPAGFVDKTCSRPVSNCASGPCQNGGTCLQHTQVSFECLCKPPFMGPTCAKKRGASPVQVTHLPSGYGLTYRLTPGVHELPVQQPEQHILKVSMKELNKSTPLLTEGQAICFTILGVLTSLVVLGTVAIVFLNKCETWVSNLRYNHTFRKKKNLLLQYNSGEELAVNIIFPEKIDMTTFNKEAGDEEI", "experiment": "KinExA on HEK293T DLK1mGFP Mouse mass pop cells detached by Versene; Error% 3.08; 95% CI 4.21nM - 26.32nM; equilibrium curves 400pM, 50nM"}, "[8]": {"target": "T5, monkey DLK1 fused to mGFP, overexpressed on HEK293T cells (monkey (crab-eating macaque), UniProt A0A2K5TMQ6 24-383)", "T5 construct": "whole, on cells; also called crab-eating macaque DLK1; not shown: mGFP fluorescent protein fused to DLK1", "T5 sequence": "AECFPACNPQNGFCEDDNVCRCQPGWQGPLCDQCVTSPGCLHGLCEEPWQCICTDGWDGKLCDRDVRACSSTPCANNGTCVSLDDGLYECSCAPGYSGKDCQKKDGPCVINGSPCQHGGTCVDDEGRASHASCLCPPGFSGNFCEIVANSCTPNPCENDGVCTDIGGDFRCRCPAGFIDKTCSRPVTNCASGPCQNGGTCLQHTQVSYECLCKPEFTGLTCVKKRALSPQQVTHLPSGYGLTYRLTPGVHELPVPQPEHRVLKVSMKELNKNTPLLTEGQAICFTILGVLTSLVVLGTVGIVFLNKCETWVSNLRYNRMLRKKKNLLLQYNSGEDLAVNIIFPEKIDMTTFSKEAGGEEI", "experiment": "KinExA on HEK293T DLK1mGFP Monkey mass pop cells detached by Versene; Error% 3.92; 95% CI 5.15nM - 17.83nM; equilibrium curves 400pM, 50nM"}},
  "data": [
    {"binder": "B1", "values": [
      {"measurement": "fold higher binding affinity than LegoChem 18A5 antibody for human DLK1-FL", "setting": "[1]", "value": "> 20", "unit": "fold"},
      {"measurement": "binding result", "setting": "[2]", "value": "no binding (tested: 20µg/ml)"},
      {"measurement": "EC50", "setting": "[3]", "value": "0.81 to 0.87", "unit": "nM"}
    ]},
    {"binder": "B2", "values": [
      {"measurement": "Kd", "setting": "[4]", "value": "~0.3", "unit": "nM"},
      {"measurement": "Kd", "setting": "[5]", "value": 5.96, "unit": "nM"},
      {"measurement": "Kd", "setting": "[6]", "value": 5.96, "unit": "nM"},
      {"measurement": "Kd", "setting": "[7]", "value": 13, "unit": "nM"},
      {"measurement": "Kd", "setting": "[8]", "value": 9.89, "unit": "nM"}
    ]}
  ]
}
